Columns and labels:
[1] = target: T1, SARS-CoV-2 spike protein on Ramos-S cells (SARS-CoV-2, UniProt P0DTC2 14-1273); assay: flow cytometry on Ramos-S cells, FITC anti-hIgG-Fc
T1 construct: whole, on cells

[2] = target: T2, dimeric rsFcγRIIa (H131 allelic form) (UniProt P12318 34-217); assay: flow cytometry, biotinylated dimeric rsFcγRIIa + streptavidin-APC on Ramos-S cells opsonised with 5 µg/ml ACE2-Fc
T2 construct: also called dimeric recombinant soluble FcγRIIa
T2 sequence: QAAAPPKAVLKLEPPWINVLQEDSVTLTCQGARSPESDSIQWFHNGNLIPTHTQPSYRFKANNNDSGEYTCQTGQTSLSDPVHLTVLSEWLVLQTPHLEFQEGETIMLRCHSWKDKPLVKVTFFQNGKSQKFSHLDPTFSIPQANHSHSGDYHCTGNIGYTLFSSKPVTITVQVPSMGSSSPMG

[3] = target: T3, dimeric rsFcγRIIIa (V158 form) (UniProt P08637 17-208); assay: flow cytometry, biotinylated dimeric rsFcγRIIIa + streptavidin-APC on Ramos-S cells opsonised with 5 µg/ml ACE2-Fc
T3 construct: also called dimeric recombinant soluble FcγRIIIa
T3 sequence (P08637 17-208 F176V limits assumed): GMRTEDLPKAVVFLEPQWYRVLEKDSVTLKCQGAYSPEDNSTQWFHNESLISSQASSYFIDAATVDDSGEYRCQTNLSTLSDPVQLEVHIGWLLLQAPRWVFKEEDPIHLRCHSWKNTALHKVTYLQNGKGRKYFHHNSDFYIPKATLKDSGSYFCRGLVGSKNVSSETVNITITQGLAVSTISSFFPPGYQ

[4] = target: T2, dimeric rsFcγRIIa (H131 allelic form); assay: flow cytometry, biotinylated dimeric rsFcγRIIa + streptavidin-APC on Ramos-S cells opsonised with ACE2-Fc

B1: S2P6-WT mAb (antibody, V domains shown)
VH: EVQLVQSGAEVKKPGASVKVSCKASGYTFTSQYMHWVRQAPGQGLEWIGIINPSGVHTSYAQKFQGRVTLTRDTSTSTLYMELSSLRSEDTAVYYCARGSPKGAFDYWGQGTLVTVSS
VL: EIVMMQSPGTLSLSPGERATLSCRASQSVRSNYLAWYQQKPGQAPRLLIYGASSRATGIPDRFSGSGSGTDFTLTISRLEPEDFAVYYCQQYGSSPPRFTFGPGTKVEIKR
B1: binds [1].

B2: CC40.8-WT mAb (antibody, V domains shown)
VH: EVQLLESGGGLVQPGGSLRLSCAASGFTFSSYVMTWARQAPGKGLEWVSAISGTGYTYYADSVKGRFTVSRDNSKNTLFLQMSSLRAEDTAVYYCAITMAPVVWGQGTTVTVSS
VL: SYELTQPPSVSVSPGQTARITCSGDALPKRYAYWYQQKSGQAPILVIYEDKKRPSGIPERLSGSKSGTVATLTISGAQVEDEADYYCYSTDSSGNHAVFGGGTQLTVLG
B2: binds [1].

B3: EflACE2-Fc-[change] (Fc fusion)
chain: ETGSTIEEQAKYFLDKFNHEAEDLFYQSSLASWNYNTNITEENVQNMNNAGDKWSAFLKEQSTTAQMYPLQEIQNLTVKLQLQALQQNGSSVLSEDKSKRLNTILNTMSTIYSTGKVCNPDNPQECLLLEPGLNEIMANSLDYNERLWAWESWRSEVGKQLRPLYEEYVVLKNEMARANHYEDYGDYWRGDYEVNGVDGYDYSRGQLIEDVEHTFEEIKPLYEHLHAYVRAKLMNAYPSYISPIGCLPAHLLGDMWGRFWTNLYSLTVPFGQKPNIDVTDAMVDQAWDAQRIFKEAEKFFVSVGLPNMTQGFWEYSMLTDPGNVQKAVCHPTAWDLGKGDFRILMCTKVTMDDFLTAHHEMGHIQYDMAYAAQPFLLRNGANEGFHEAVGEIMSLSAATPKHLKSIGLLSPDFQEDNETEINFLLKQALTIVGTLPFTYMLEKWRWMVFKGEIPKDQWMKKWWEMKREIVGVVEPVPHDETYCDPASLFHVSNDYSFIRYYTRTLYQFQFQEALCQAAKHEGPLHKCDISNSTEAGQKLFNMLRLGKSEPWTLALENVVGAKNMNVRPLLNYFEPLFTWLKDQNKNSFVGWSTDWSPYADQSIKVRISLKSALGDRAYEWNDNEMYLFRSSVAYAMRQYFLKVKNQMILFGEEDVRVANLKPRISFNFFVTAPKNVSDIIPRTEVEKAIRMSRSRINDAFRLNDNSLEFLGIQPTLGPPNQPPVSGGGGSTHTCPPCPAPELLGGPSVFLFPPKPKDTLMISRTPEVTCVVVDVSHEDPEVKFNWYVDGVEVHNAKTKPREEQYNSTYRVVSVLTVLHQDWLNGKEYKCKVSNKALPAPIEKTISKAKGQPREPQVYTLPPSREEMTKNQVSLTCLVKGFYPSDIAVEWESNGQPENNYKTTPPVLDSDGSFFLYSKLTVDKSRWQQGNVFSCSVMFEALHNHYTQKSLSLSPGK
B3: binds [2]; binds [3].

B4: EflACE2-Fc-[change] (Fc fusion)
chain: ETGSTIEEQAKYFLDKFNHEAEDLFYQSSLASWNYNTNITEENVQNMNNAGDKWSAFLKEQSTTAQMYPLQEIQNLTVKLQLQALQQNGSSVLSEDKSKRLNTILNTMSTIYSTGKVCNPDNPQECLLLEPGLNEIMANSLDYNERLWAWESWRSEVGKQLRPLYEEYVVLKNEMARANHYEDYGDYWRGDYEVNGVDGYDYSRGQLIEDVEHTFEEIKPLYEHLHAYVRAKLMNAYPSYISPIGCLPAHLLGDMWGRFWTNLYSLTVPFGQKPNIDVTDAMVDQAWDAQRIFKEAEKFFVSVGLPNMTQGFWEYSMLTDPGNVQKAVCHPTAWDLGKGDFRILMCTKVTMDDFLTAHHEMGHIQYDMAYAAQPFLLRNGANEGFHEAVGEIMSLSAATPKHLKSIGLLSPDFQEDNETEINFLLKQALTIVGTLPFTYMLEKWRWMVFKGEIPKDQWMKKWWEMKREIVGVVEPVPHDETYCDPASLFHVSNDYSFIRYYTRTLYQFQFQEALCQAAKHEGPLHKCDISNSTEAGQKLFNMLRLGKSEPWTLALENVVGAKNMNVRPLLNYFEPLFTWLKDQNKNSFVGWSTDWSPYADQSIKVRISLKSALGDRAYEWNDNEMYLFRSSVAYAMRQYFLKVKNQMILFGEEDVRVANLKPRISFNFFVTAPKNVSDIIPRTEVEKAIRMSRSRINDAFRLNDNSLEFLGIQPTLGPPNQPPVSGGGGSTHTCPPCPAPELLGGPSVFLFPPKPKDTLMISRTPEVTCVVVDVSHEDPEVKFNWYVDGVEVHNAKTKPREEQYNSTYRVVSVLTVLHQDWLNGKEYKCKVSNKALPAPIEKTISKAKGQPREPQVYTLPPSREEMTKNQVSLTCLVKGFYPSDIAVEWESNGQPENNYKTTPPVLDSDGSFFLYSKLTVDKSRWQQGNVFSCSVMYEALHNHYTQKSLSLSPGK
B4: no binding (tested: 5 µg/ml ACE2-Fc for opsonisation) [4].

Source: patent US20250009854A1 (MACFARLANE BURNET INSTITUTE FOR MEDICAL RESEARCH AND PUBLIC …, published 2025)
